Test results published in patent US8653242B2, “Therapeutic antibodies against flagellated Pseudomonas aeruginosa” (priority 2010, dated 2014).

B1: LST-003 (antibody, V domains shown)
VH: MMVLSLLYLLTAIPGILSDVQLQESGPGLVKPSQSLSLPCSVTGYSITSGYYWNWIRQFPGNKLEWMGYIRYDGNNNYNPSLKNRISITHDTSKNQFFLKLNYVTTEDTATYYCARGLQFYFDSWGQGTTLTVSS
VL: MVLILLLLWVSGTCGDIVMSQSPSSLAVSGGEKVTMSCKSSQSLLNGSYQKHTLAWYQQKPGQSPKLLIYWASTRESGVPDRFTGSGSGTDFTLTISSVKAEDLAVYYCQQYYSYPWTFGGGTKLEIKR
modifications: human IgG1 constant domains lacking entries
B2: LST-004 (antibody, V domains shown)
VH: MNFGLSLVFLVLILKGVQCEVMLVESGGGLVKPGGSLKLSCAASGFTFSTFTMSWVRQTPEKRLECVATINGGGGNTYYPDSVKGRFTISRDNAKNNLYLQMSSLRSEDTAFYFCSRLYGIYAMDYWGQGTSVTVSS
VL: MKSHTQVFVYMLLWLSGVEGDIVMTQSHIFMSTSVGDRVSITCKASQDVGSAVAWYQQKPGQSPKVLIYWTSTRHTGVPDRFAGSGSGTEFTLTISNVQSEDLADYFCQQYSSYPLTFGAGTKLELKR
modifications: human IgG1 constant domains lacking entries

What was measured:
Ka02 (flagellin type B) = assay: ELISA on formaldehyde-fixed Ka02; type: binding, P. aeruginosa; conditions: fixed whole bacteria ELISA, 1 nM mAb
Protocol: (§1) From a single fresh bacterial colony, PA strains 27853 (harboring flagellin type A) or Ka02 (harboring flagellin type B) were grown overnight in 5 ml LB at 37° C. Thereafter, bacterial cultures were centrifuged at 1500 g for 30 min and following removal of the clear supernatant, pellets were washed twice with 20 ml PBS with intervening centrifugation. The final pellet was resuspended in a volume of PBS (˜10 ml) and adjusted to generate an OD600 of ˜0.2 and maintained on ice prior to coating on ELISA plates which were prepared as follows: to the wells of flat-bottomed ELISA plates (Nunc, cat #442404), 50 μl poly-L-lysine (PLL, Sigma Cat # P-1524) of a 1 μg/ml solution was added and plates were incubated for 30 min at room temperature. Thereafter, non-adsorbed PLL was removed. Fifty μl of the appropriate bacterial suspensions from the different strains at 0.2 OD600 nm were added to the PLL-coated ELISA plates. In some wells, a “mixed-bacterial population” was added. To that end, 25 μl of PA 27853 and 25 μl of Ka02 bacterial suspensions were added to the same wells. […]
(§2) ELISA plates containing the fixed P. aeruginosa bacteria, were blocked by adding 200 μl PBS-10% FBS for 60 min at room temperature. […] Thereafter, signal was quenched with 50 μA 10% H2SO4 and plates read at 450 nm in a Microtiter plate reader (Anthos MultiRead 400).

[1] = target: T1, flagellin type B strains (PA21 and PA01) (Pseudomonas aeruginosa, UniProt P72151); assay: Western blot of P. aeruginosa lysates, flagellin type B strains; type: binding; conditions: mAb 10 μg/ml
T1 construct: a panel of blotted P. aeruginosa lysates of type A or B flagellin; endogenous in cells; host or cells: P. aeruginosa strains PA21 (MDR isolate) and PA01 (laboratory strain)
Protocol: (§3) The binding specificity of the chimeric LST-003 mAb was assessed in a western blot experiment as compared to the parental mouse LST-001 mAb. Two identical, yet separate nitrocellulose membranes containing a panel of blotted P. aeruginosa lysates of type A or B flagellin following electrophoresis were hybridized with either mouse LST-001 (FIG. 5A) or chimeric LST-003 (FIG. 5B) mAbs at identical final concentrations (10 μg/ml) with the ensuing detecting secondary peroxidase-conjugated antibodies being anti-mouse Fc or anti-human Fc respectively. Laboratory strains PAK (type A flagellin) or PA01 (type B flagellin) were included as appropriate controls whereas other strains represented multi-drug resistant (MDR) P. aeruginosa strains. […] FIG. 6 also depicts binding of LST-001, LST-002 and LST-003 to immobilized, whole P. aeruginosa as measured in an ELISA and confirms the western blot findings. See below in Example 7 for the ELISA protocol.

[2] = target: P. aeruginosa flagellin type A (Pseudomonas aeruginosa, UniProt P21184); assay: ELISA of LST-009 on recombinant flagellin type A; type: binding; conditions: 250 ng/well antigen
Protocol: (§4) Two hundred and fifty ng (250 ng) of P. aeruginosa flagellin type A or B (50 μl from 5 μg/ml) were dispensed into each well of ELISA plates (Nunc, cat #442404) and coating allowed to proceed for 2 hours at room temperature with gentle shaking. Plates were then blocked with 200 μl PBS-10% fetal bovine serum (FBS) overnight at 4° C.
(§5) To that end, following three washes with PBS-0.05% Tween-20, 50 μl of a goat anti-human IgG (Fc)-HRP (Cat # A80-104P; Bethyl, Tex., USA) was added at a dilution of 1:10,000 in PBS-10% FBS with incubation allowed to proceed for 60 min at room temperature. Following 3 separate washes with PBS-Tween-20 (0.05%) and gentle tapping of plates on paper towels to remove final traces of wash buffer, 50 μl TMB/E substrate solution (Cat #ES001-500 ml; Millipore) was added for 15 min at room temperature. Thereafter, signal was quenched with 50 μl 10% H2SO4 and plates read at 450 nm in a Microtiter plate reader (Anthos MultiRead 400).

[3] = tested on: mixed PA27853 and Ka02 bacteria; assay: ELISA on mixed fixed bacteria; type: binding, P. aeruginosa; conditions: 1 nM mAb; wells coated with half the amount of each strain
Protocol: as §1
ELISA plates containing the fixed P. aeruginosa bacteria, were blocked by adding 200 μl PBS-10% FBS for 60 min at room temperature. […] Thereafter, signal was quenched with 50 μA 10% H2SO4 and plates read at 450 nm in a Microtiter plate reader (Anthos MultiRead 400). […]

[4] = tested on: flagellin type A strains (PA141, PA49, PA1, PA409 and PAK); assay: Western blot of P. aeruginosa lysates, flagellin type A strains; type: binding; conditions: mAb 10 μg/ml
Protocol: as §3

[5] = tested on: PA27853 (flagellin type A); assay: ELISA on formaldehyde-fixed PA27853; type: binding, P. aeruginosa; conditions: fixed whole bacteria ELISA, 1 nM mAb
Protocol: as §1, §2

[6] = target: P. aeruginosa flagellin type B (Pseudomonas aeruginosa, UniProt P72151); assay: ELISA of LST-009 on recombinant flagellin type B; type: binding; conditions: 250 ng/well antigen
Protocol: as §4, §5

Chain of P. aeruginosa flagellin type A (P21184 whole entry): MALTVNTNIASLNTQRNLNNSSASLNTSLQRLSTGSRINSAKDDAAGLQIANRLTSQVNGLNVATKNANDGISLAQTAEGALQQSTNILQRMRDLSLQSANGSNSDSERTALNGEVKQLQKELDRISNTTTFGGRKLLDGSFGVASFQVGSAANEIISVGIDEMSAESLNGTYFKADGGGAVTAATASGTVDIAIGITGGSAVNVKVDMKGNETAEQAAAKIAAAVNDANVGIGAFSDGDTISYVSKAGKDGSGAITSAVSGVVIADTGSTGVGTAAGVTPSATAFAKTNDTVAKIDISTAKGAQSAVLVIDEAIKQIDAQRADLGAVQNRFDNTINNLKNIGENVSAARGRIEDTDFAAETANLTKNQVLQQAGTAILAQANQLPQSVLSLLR
Chain of P. aeruginosa flagellin type B (P72151 whole entry): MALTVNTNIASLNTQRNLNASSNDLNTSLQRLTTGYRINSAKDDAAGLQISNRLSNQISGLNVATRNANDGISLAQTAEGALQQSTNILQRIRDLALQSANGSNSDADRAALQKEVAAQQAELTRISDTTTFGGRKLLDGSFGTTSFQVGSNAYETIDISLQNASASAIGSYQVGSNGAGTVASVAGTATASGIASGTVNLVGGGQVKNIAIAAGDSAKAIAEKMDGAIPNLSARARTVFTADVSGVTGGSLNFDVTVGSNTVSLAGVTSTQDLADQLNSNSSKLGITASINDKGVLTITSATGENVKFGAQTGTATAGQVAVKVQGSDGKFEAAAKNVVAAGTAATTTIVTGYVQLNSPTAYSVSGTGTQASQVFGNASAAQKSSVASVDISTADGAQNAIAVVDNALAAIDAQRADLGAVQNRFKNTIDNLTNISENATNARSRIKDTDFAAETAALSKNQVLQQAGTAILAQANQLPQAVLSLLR
T1 sequence (P72151 whole entry): as above

Molecule	binding to Ka02 (Ka02 (flagellin type B))	immunoblot reactivity to flagellin type B strains [1]	EC50 towards P. aeruginosa flagellin type A [2]	OD as compared to FIG. 16 (full amount of bacteria) [3]	immunoblot reactivity to flagellin type A strains [4]	binding to PA27853 [5]	EC50 towards P. aeruginosa flagellin type B [6]
B1	failed to bind Ka02	not flagellin type B	approximately 65 ng/ml	approximately 50%	stronger binding	–	–
B2	–	–	–	approximately 50%	–	minimal signal	approximately 300 ng/ml
